Results taken from patent US8088892B2, “Inhibitors of proteins from the Rho-GEF family” (Centre National de la Recherche Scientifique (C.N.R.S.), priority 2002, dated 2012).
“Also recorded” adds a separate entry of the source. Read-outs that look alike come from different tables or passages of the source.

Legend:
[1] = molecular target: T1, TrioGEFD2 (Homo sapiens, UniProt O75962); assay: In vitro guanine nucleotide exchange (GEF) assay on RhoA; assay type: biochemical; parameters: using recombinant GST-TrioGEFD2 (a.a. 1848-2298), TrioDH2 (a.a. 1848-2096); made in house; key to in vitro GEF assay (inhibition): +++^2 and +^2 represent respectively a full and a partial (see FIG. 3) inhibitory effect; +++^2 and +^2 represent respectively a full and a partial (see FIG. 3) inhibitory effect; −−^2 represents a lack of inhibitory effect; conditions: for Inhibition of TrioGEFD2 exchange activity on RhoA in vitro: 20-fold molar excess (8 μM) inhibitor, 0.4 μM GST-GEFD2, 0.3 μM [3H]GDP-RhoA, 15 min; for IC50: 0.4 μM GST-GEFD2, 0.3 μM RhoA, increasing amounts of GST-TRIAPα, read-out: apparent half-inhibitory concentration (inhibition of TrioGEFD2)
Protocol: For that purpose, aptamers, TrioGEFD2 and RhoA are expressed as GST-fusion proteins. RhoA is loaded with ^3H-GDP, and the release of GDP is followed after addition of GEFD2 in presence or in absence of the selected aptamers (as described in Debant et al., 1996).
A 20-fold molar excess (8 μM) of GST-aptamers TRIAPα, TRIAPβ (another TrioGEFD2 binding aptamer), TRIAPγ (another TrioGEFD2 binding aptamer) or the empty thioredoxine (Trx) were pre-incubated with 0.4 μM GST-GEFD2 (left side of FIG. 2A) or 0.4 μM GST-DH2 (right side of FIG. 2A), as indicated, before adding 0.3 μM of [^3H]GDP loaded GST-RhoA. The exchange activity was monitored by the decrease of [^3H]GDP bound-RhoA after 15 min (see Materials and Methods). The amount of [^3H]GDP bound-RhoA incubated without GEF (first bar on the left) was defined as 100% The values and errors bars were calculated from at least three independent experiments.
0.4 μM GST-GEFD2 were incubated with increasing amounts of GST-TRIAPα (grey bars) or GST (black bars), and the exchange assay was then performed on 0.3 μM RhoA, as described in A.
An in vitro guanine nucleotide exchange (GEF) assay was used to test whether the TrioGEFD2-binding aptamers could inhibit the catalytic activity of TrioGEFD2 towards RhoA. For this purpose, the aptamers TRIAPα, TRIAPβ and TRIAPγ (including the Trx gene) were excised from pEG202 as EcoRI/NotI fragments and cloned into pGEX4T1 EcoRI/NotI. The aptamers were then expressed and purified from bacteria as GST fusion proteins, using standard procedures (Smith and Johnson, 1988). GTPase-GST fusion proteins were prepared, loaded with [^3H]GDP and the guanine nucleotide release assays were performed as described (Debant et al., 1996), using recombinant GST-TrioGEFD2 (a.a. 1848-2298), TrioDH2 (a.a. 1848-2096). For each point, 0.3 μM GTPase was mixed with or without 0.4 μM GEF in presence of non-labeled GTP, and the reaction mix was filtered after 0 min and 15 mm reaction at 25° C. The catalytic activity of TrioGEFD2 was thus measured by the decrease of the GTPase-associated radioactivity. The results are expressed as the ratio “exchange after 15 min over exchange after 0 min” (% bound [^3H]GDP-RhoA). To measure the effect of the aptamers on the exchange activity, a 20-fold molar excess of GST-TRIAPs was pre-incubated with GEFD2 (or GEFD1) for 30 min on ice before the exchange assay was carried out. For each experiment, data were obtained in triplicate.

[2] = system: PC12 cells; assay: NGF-induced neurite outgrowth; assay type: cell-based; conditions: NGF 50 ng/ml
Protocol: PC12 were transfected with GFP-TRIPα (lack squares) or GFP (white diamonds) and subjected to a time-course exposure to NGF (50 ng/ml). At each time-point cells were fixed and the number of transfected cells with neurites was counted from at least 200 cells.
Since Trio is an activator of RhoA and is expressed in PC12 cells (Estrach et al., 2002), it was analysed whether TRIPα could interfere with serum-induced neurite retraction in NGF-differentiated PC12 cells. […] After NGF treatment, cells were subjected to serum addition (DMEM medium supplemented with 10% HS and 5% fetal calf serum (FCS)) from 0 to 15 min (FIG. 6A). Cells were then fixed and permeabilised (Estrach et al., 2002) and observed as described in FIG. 5. Cells with neurites are defined as cells with neurites of at least twice the length of the cell body.
However, since the NGF treatment was performed for 16 hours, it was still possible that the effect of TRIPα on the NGF-differentiation signal was masked by the long NGF exposure. To test this hypothesis, PC12 cells expressing GFP-TRIPα or […] were subjected to a time-course exposure to NGF (50 ng/ml) for 1 to 24 hours.

[3] = molecular target: T1, TrioGEFD2; assay: Yeast Exchange Assay (YEA), RhoA activation; assay type: cell-based; conditions: yeast strain TAT7, reporter gene
From the text: The wild type GTPase is fused to the LexA DNA binding domain (Matchmaker GAL4 two-hybrid, Clontech Laboratories, Inc., USA) and the effector to the […] (Matchmaker GAL4 two-hybrid, Clontech, Inc., USA). Under these conditions, no binding occurs in the TAT7 strain (De Toledo et al., 2000). Upon addition of a third plasmid expressing the GEF, the GTPase gets activated and binds to its effector, thus leading to the transactivation of the reporter gene LacZ.
TrioGEFD2, a control GEF (GEF720) or an empty vector (−GEF: corresponds to a vector without GEF) were introduced into the YEA system and analysed for their ability to transactivate the reporter gene in absence (left panel) or in the presence (right panel) of TRIPα.
In order to better characterise the effect of TRIAPα on the Trio full length RhoGEF activity, the yeast exchange assay (YEA) was used, which is a quick and quantitative test derived from the classical two-hybrid system allowing to measure Rho-GEF activity and specificity (De Toledo et al., 2000). This functional assay is based on the fact that the GTPase binds to its effector only if it is activated by a RhoGEF. Briefly, yeasts are transformed with the GTPase fused to the LexA binding domain (LexA), and its effector to the GAL-4 Activating Domain (GAD), and with the adequate Rho-GEF partner in the yeast strain TAT7 (FIG. 7). […]

Molecule: AREGADGAICGYNLATLVMLGPSERVFCPLCEPCSSDIYELM [TRIPα, 42-amino acid peptide corresponding to the variable region of TRIAPα]
- Inhibition of TrioGEFD2 exchange activity on RhoA in vitro [1]: inhibits TrioGEFD2 activity to a similar level than TRIAPα; also recorded: as potent as TRIAPα
- Effect on NGF-induced neurite outgrowth, time course ([2]; 1 to 24 hours): enhances NGF-induced neurite outgrowth
- Effect on NGF-induced neurite outgrowth after 16 hours NGF ([2]; 16 hours): had no visible effect on the NGF pathway; also recorded: does not seem to have an effect
- Inhibition of TrioGEFD2-mediated RhoA activation in the YEA system [3]: inhibits TrioGEFD2-mediated RhoA activation

B1: TRIAPα: aptamer of 154 amino acids: variable region of 42 amino acids inserted into the thioredoxin protein; tested as GST fusion (protein)
chain: MSDKIIHLTDDSFDTDVLKADGAILVDFWAEWCGPAREGADGAICGYNLATLVMLGPSERVFCPLCEPCSSDIYELMGPCKMIAPILDEIADEYQGKLTVAKLNIDQNPGTAPKYGIRGIPTLLLFKNGEVASATKVGALSKGQLKEFLDANLA
- IC50 ([1]; listed as OST-TRIAPα): ~4 µM
- IC50 [1]: 4 µM
- Inhibition of TrioGEFD2 exchange activity on RhoA in vitro [1]: potent inhibitor of TrioGEFD2 activity; also recorded: inhibits
- in vitro GEF assay (inhibition) ([1]; RhoGEF TrioDH2PH2): +++^2
- Inhibition of TrioGEFD2-mediated RhoA activation in the YEA system [3]: blocked specifically TrioGEFD2-mediated activation of RhoA
